From patent publication US20140248254A1, “THE USE OF ACHE AS NUCLEASE” (priority 2011, published 2014)

Key:
HeLa cell = test: Screening Method 3: DNA breakage (Tunnel) in fixed, permeabilized HeLa cells treated with protein; format: cell-based, human; details: AChE protein 1 μg/μl, 1-2 hr 37° C., compared with BSA group
Method: HeLa cells were plated in 96-well plate with a 60% density, and after complete adherence, the cells were fixed with 4% PFA for 10 min, and permeabilized with 0.1% sodium citrate +0.1% Triton X-100 for 10 min, for twice. After PBS washing, cells were divided into five groups, as follows:
AChE protein group: HeLa cell, treated with AChE protein (1 μg/μl) after fixation and permeabilization treatment;
Cells of each group were incubated for 1-2 hr in 37° C.; Washed twice with PBS, and fixed with 4% PFA for 10 min. Tunnel reagent was added, incubated for 1 hr in 37° C.; and then washed three times with PBS, stained with Hoechest. Observation was performed by fluorescence microscope.

[1] = tested on: plasmid DNA (pEGFP-C1 plasmid); test: In vitro DNase activity: cleavage of plasmid DNA by purified protein; format: biochemical; details: for cleavage of plasmid DNA from supercoil (SC) into Nick and Linear structures: cell free system, 37° C.
Method: D. The results of 1% agarose electrophoresis before which pEGFP-C1 plasmid DNA and Homo or Mus AChE protein (0, 0.5, 1 and 2 μg) were coincubated for 6 h. EcoR was used to indicate linear DNA. MK indicated molecular weight marker.
E. the plasmid splitting with increasing time of the incubation of pEGFP-C1 plasmid DNA (150 ng) and Homo or Mus AChE protein (1 μg)). The above experiment was repeated for 3 times.
G. Commercial AChE isolated from Ee1 was incubated in different doses with plasmid DNA, and two bovine serum albumins (BSA1, BSA2) purchased from different companies were used as control at the same time; after being incubated for 5 h, they were subjected to DNA gel electrophoresis.
H. Commercial AChE isolated from Ee1 was incubated with plasmid DNA for different durations, and two bovine serum albumins (BSA1, BSA2) purchased from different companies were used as control at the same time. They were then subjected to DNA gel electrophoresis.
B. The influence of pH value on AChE nuclease activity. Plasmid DNA was incubated with Homo AChE protein under different pH conditions for 3 h.
Purified plasmid DNA was used as substrate for detection. In the experiment of cleaving of plasmid DNA, 0.15 μg of plasmid DNA with a transfection-grade purity (pEGFP-C1 plasmid, Clotech) was added to 10 μl buffer system containing (5.0 mM Tris-HCl, PH 7.5; 2.5 mM CaCl2; 5.0 mM MgCl2). 1 μg (or an amount indicated in Examples) of purified AChE proteins of human or mouse origin (AChE 1-547AA corresponding to human; AChE1-548AA corresponding to mouse) was further added, and incubated in 37° C. Sampling at 6 h (or timepoints indicated in Examples).

DNA = test: Dissociation constant between protein and DNA (Bio Core T100 assay); format: binding
From the text: AChE protein and DNase I presented similar binding curves.
Meanwhile, the inventors detected environment characteristics in which AChE cleaving DNA. DNase activity of AChE was Mg2+-dependent, while Ca2+ could only play a weak supporting role (FIG. 5a). In a relatively wide pH range of pH 7.0-10.0 (similar to in vivo pH environment during apoptosis), AChE can fully play its function of cleaving DNA (FIG. 5b).

B1: AChE (protein, listed as Homo Sapiens)
chain: MRPPQCLLHTPSLASPLLLLLLWLLGGGVGAEGREDAELLVTVRGGRLRGIRLKTPGGPVSAFLGIPFAEPPMGPRRFLPPEPKQPWSGVVDATTFQSVCYQYVDTLYPGFEGTEMWNPNRELSEDCLYLNVWTPYPRPTSPTPVLVWIYGGGFYSGASSLDVYDGRFLVQAERTVLVSMNYRVGAFGFLALPGSREAPGNVGLLDQRLALQWVQENVAAFGGDPTSVTLFGESAGAASVGMHLLSPPSRGLFHRAVLQSGAPNGPWATVGMGEARRRATQLAHLVGCPPGGTGGNDTELVACLRTRPAQVLVNHEWHVLPQESVFRFSFVPVVDGDFLSDTPEALINAGDFHGLQVLVGVVKDEGSYFLVYGAPGFSKDNESLISRAEFLAGVRVGVPQVSDLAAEAVVLHYTDWLHPEDPARLREALSDVVGDHNVVCPVAQLAGRLAAQGARVYAYVFEHRASTLSWPLWMGVPHGYEIEFIFGIPLDPSRNYTAEEKIFAQRLMRYWANFARTGDPNEPRDPKAPQWPPYTAGAQQYVSLDLRPLEVRRGLRAQACAFWNRFLPKLLSATDTLDEAERQWKAEFHRWSSYMVHWKNQFDHYSKQDRCSDL
intracellular DNA breakage (HeLa cell): obvious breakage
DNA cleaving activity at pH 5-6 ([1]; Homo AChE protein, pH 5-6, 3 h): reduced slightly
DNA cleaving activity at pH 7-10 ([1]; Homo AChE protein, pH 7-10, 3 h): can effectively function to cleave DNA
affinity for DNA relative to that of DNase I (DNA; from Kd values): about 74%
Kd (DNA; software analysis of binding curves): 1.53 µM

B2: Homo AChE (protein)
chain: EGREDAELLVTVRGGRLRGIRLKTPGGPVSAFLGIPFAEPPMGPRRFLPPEPKQPWSGVVDATTFQSVCYQYVDTLYPGFEGTEMWNPNRELSEDCLYLNVWTPYPRPTSPTPVLVWIYGGGFYSGASSLDVYDGRFLVQAERTVLVSMNYRVGAFGFLALPGSREAPGNVGLLDQRLALQWVQENVAAFGGDPTSVTLFGESAGAASVGMHLLSPPSRGLFHRAVLQSGAPNGPWATVGMGEARRRATQLAHLVGCPPGGTGGNDTELVACLRTRPAQVLVNHEWHVLPQESVFRFSFVPVVDGDFLSDTPEALINAGDFHGLQVLVGVVKDEGSYFLVYGAPGFSKDNESLISRAEFLAGVRVGVPQVSDLAAEAVVLHYTDWLHPEDPARLREALSDVVGDHNVVCPVAQLAGRLAAQGARVYAYVFEHRASTLSWPLWMGVPHGYEIEFIFGIPLDPSRNYTAEEKIFAQRLMRYWANFARTGDPNEPRDPKAPQWPPYTAGAQQYVSLDLR
cleavage of plasmid DNA from supercoil (SC) into Nick and Linear structures [1]: effectively cleave plasmid DNA

B3: Mus AChE (protein)
chain: EGREDPQLLVRVRGGQLRGIRLKAPGGPVSAFLGIPFAEPPVGSRRFMPPEPKRPWSGVLDATTFQNVCYQYVDTLYPGFEGTEMWNPNRELSEDCLYLNVWTPYPRPASPTPVLIWIYGGGFYSGAASLDVYDGRFLAQVEGAVLVSMNYRVGTFGFLALPGSREAPGNVGLLDQRLALQWVQENIAAFGGDPMSVTLFGESAGAASVGMHILSLPSRSLFHRAVLQSGTPNGPWATVSAGEARRRATLLARLVGCPPGGAGGNDTELIACLRTRPAQDLVDHEWHVLPQESIFRFSFVPVVDGDFLSDTPEALINTGDFQDLQVLVGVVKDEGSYFLVYGVPGFSKDNESLISRAQFLAGVRIGVPQASDLAAEAVVLHYTDWLHPEDPTHLRDAMSAVVGDHNVVCPVAQLAGRLAAQGARVYAYIFEHRASTLTWPLWMGVPHGYEIEFIFGLPLDPSLNYTTEERIFAQRLMKYWTNFARTGDPNDPRDSKSPQWPPYTTAAQQYVSLNLKP
cleavage of plasmid DNA from supercoil (SC) into Nick and Linear structures [1]: effectively cleave plasmid DNA
